Experiment: soluble on expression in E. coli; label from the status in PepcDB or PDB records

Q: Which “soluble on expression in E. coli” value does the source give for “ASSPANKVYQDRFESMYSKIKDPANGYFSEQGIPYHSIETLMVEAPDYGHVTTSQAMSYYMWLEAMHGRFSGDFTGFDKSWSVTEQYLIPTEKDQPNTSMSRYDANKPATYAPEFQDPSKYPSPLDTSQPVGRDPINSQLTSAYGTSMLYGMHWILDVDNWYGFGARADGTSKPSYINTFQRGEQESTWETIPQPCWDEHKFGGQYGFLDLFTKDTGTPAKQFKYTNAPDADARAVQATYWADQWAKEQGKSVSTSVGKATKMGDYLRYSFFDKYFRKIGQPSQAGTGYDAAHYLLSWYYAWGGGIDSTWSWIIGSSHNHFGYQNPFAAWVLSTDANFKPKSSNGASDWAKSLDRQLEFYQWLQSAEGAIAGGATNSWNGRYEAVPSGTSTFYGMGYVENPVYADPGSNTWFGMQVWSMQRVAELYYKTGDARAKKLLDKWAKWINGEIKFNADGTFQIPSTIDWEGQPDTWNPTQGYTGNANLHVKVVNYGTDLGCASSLANTLTYYAAKSGDETSRQNAQKLLDAMWNNYSDSKGISTVEQRGDYHRFLDQEVFVPAGWTGKMPNGDVIKSGVKFIDIRSKYKQDPEWQTMVAALQAGQVPTQRLHRFWAQSEFAVANGVYAILFPD” here?
A: Its value is “soluble”.

Q: With “MGHHHHHHSHMSGTEEAILGGRDSHPAAGGGSVLCFGQCQYTAEEYQAIQKALRQRLGPEYISSRMAGGGQKVCYIEGHRVINLANEMFGYNGWAHSITQQNVDFVDLNNGKFYVGVCAFVRVQLKDGSYHEDVGYGVSEGLKSKALSLEKARKEAVTDGLKRALRLPLLGVSGRILYSLFSVHSVMCAGGLPTPTASAQTAPSSPCSSAVLRYAQEFWECTWKLYSGQRLPEITK” as the sequence, how does the “soluble on expression in E. coli” value read?
A: The value was “not soluble”.

Q: For “MPNASQVYRSTRSSSPKTISFEEAIIQGLATDGGLFIPPTIPQVDQATLFNDWSKLSFQDLAFAIMRLYIAQEEIPDADLKDLIKRSYSTFRSDEVTPLVQNVTGDKENLHILELFHGPTYAFKDVALQFVGNLFEYFLQRTNANLPEGEKKQITVVGATSGDTGSAAIYGLRGKKDVSVFILYPTGRISPIQEEQMTTVPDENVQTLSVTGTFDNCQDIVKAIFGDKEFNSKHNVGAVNSINWARILAQMTYYFYSFFQATNGKDSKKVKFVVPSGNFGDILAGYFAKKMGLPIEKLAIATNENDILDRFLKSGLYERSDKVAATLSPAMDILISSNFERLLWYLAREYLANGDDLKAGEIVNNWFQELKTNGKFQVDKSIIEGASKDFTSERVSNEETSETIKKIYESSVNPKHYILDPHTAVGVCATERLIAKDNDKSIQYISLSTAHPAKFADAVNNALSGFSNYSFEKDVLPEELKKLSTLKKKLKFIERADVELVKNAIEEELAKMKL”, which “soluble on expression in E. coli” value is on record?
A: Its value is “soluble”.

Q: Which “soluble on expression in E. coli” value does the source give for “VVAPITTGYTVKISNYGWDQSDKFVKIYITLTGVHQVPTENVQVHFTERSFDLLVKNLNGKSYSMIVNNLLKPISVEGSSKKVKTDTVLILCRKKVENTRWDYLTQVEKECKEK” here?
A: Its value is “soluble”.

Q: With “AKEDNIEMQGTVLETLPNTMFRVELENGHVVTAHISGKMRKNYIRILTGDKVTVELTPYDLSKGRIVFRSR” as the sequence, how does the “soluble on expression in E. coli” value read?
A: The value was “soluble”.

Q: For “MGGIYRLSLKSTEATAERLSCDTRCNYEDRDLAYSPDGRWLAIARRFSNISEDIFIRDLASAHEKRLTQGLEDIRGLSWTPDSQALVFATEDSGSSNGFTLDINTAQIRSLDVEGMSYPSSVSAEGELVYHQYHRQFQMAYFSLGDKVPGSLFPLLYSGVSHRNPDYSPEAKRIVFVSSETGYNEIWTSDINGQKLEQLTQLKSRVAYPRWSPDGSRIAFIAPDDRNEGNRIFILDLTNKNITALASSYHNHGRPSWNWQGTAVLASTADGITEFYLDNRAPRVISSLSMAVGFAKSATELVFSRDGENGLWQINLTQPEHVEQLISTDAFRAGNNWVLTASGVYFKSSNGHEQLLNYWEASSQQVTSLLRVPRSSLSGFGSMTYIPEANRLVMTLDGFPQRDIILLKHKLLKLEHHHHHH”, which “soluble on expression in E. coli” value is on record?
A: Its value is “soluble”.

Q: For “MRNITNFLKTFLLWELLKGLKVTGKHFFTRKVTVQYPDEKTPISNRFRGLHALRRYENGEERCIACKLCEVVCPALAITINSTEREDGTRRTSSYEMDLFKCIFCGYCEESCPVDSIVETNILEYHFEERGENIMTKAKLLAIGDKYEAQIAADRLQDKDFR”, which “soluble on expression in E. coli” value is on record?
A: The value was “not soluble”.

Q: Which “soluble on expression in E. coli” value does the source give for “MISRHFTVLTALNLQTKIKICIRNFSIRGAMTKVNGNSNGNGISASTDLLDTPSAYTQKSNKTHTSIDLRSDTVTVPSVEMRRAMAEAIVGDDVYGEDTTTNRLEQRCAELFGKEAGLFVTSGTMGNLLAIMAHCQRGEEIIVGRYNHIHRWEQGNYAQFAGISATTLEVKPDGTMDLNDIEQAIRVKGGYVQIKDESCDDLEVTSIPDCHMPASKLICIENTHNYTGGKALPIEWMRSVKQLAERRDLKVHMDGARIYNAAVASNCSVSKIASFADTVQMCFSKGLGAPVGSIVVGPKDFIDRARHSRKALGGGWRQSGILAAAAHIALDHADATIRADHERAKTLARMINDATPEEFRTKVFAAEKDITNMVLVHCQNGVTVQQLTDFFQKHDILAMTFDARRIRMVLNWNVSDENLETIVEVYKKFLKQL” here?
A: The value was “not soluble”.

Q: With “MFQMRLNLVIELRDAPGQLVSVLEPLGSTGVNIVTVIHERDREYGPVVPVQLTVEGDRETLDAAIGRLQEQGVNIIEMDGAPLREKFTTILIGDIAEGDLQETVEAVNSVQGASVLDLSLRMSEGRSAARITFEAEHGSRDEVLRRINEAAMERNLLLVSEV” as the sequence, how does the “soluble on expression in E. coli” value read?
A: The value was “not soluble”.

Q: Which “soluble on expression in E. coli” value does the source give for “MANEVIKCKAAVAWEAGKPLSIEEIEVAPPKAHEVRIKIIATAVCHTDAYTLSGADPEGCFPVILGHEGAGIVESVGEGVTKLKAGDTVIPLYIPQCGECKFCLNPKTNLCQKIRVTQGKGLMPDGTSRFTCKGKTILHYMGTSTFSEYTVVADISVAKIDPLAPLDKVCLLGCGISTGYGAAVNTAKLEPGSVCAVFGLGGVGLAVIMGCKVAGASRIIGVDINKDKFARAKEFGATECINPQDFSKPIQEVLIEMTDGGVDYSFECIGNVKVMRAALEACHKGWGVSVVVGVAASGEEIATRPFQLVTGRTWKGTAFGGWKSVESVPKLVSEYMSKKIKVDEFVTHNLSFDEINKAFELMHSGKSIRTVVKI” here?
A: The value was “soluble”.

Q: Which “soluble on expression in E. coli” value does the source give for “GMWQFPLFETILIEQGQAKNISYHQQRYEKSLLKFYPKMKLQPFDLAKIIAKHTALFTHREGLIRCRIDYNHHDYVLQCFPYQQKVYRTFKPVFCDHIDYSLKFSDRTLLNNLLKQKEECDEIMIIRQGKVTDCSIGNLIFRQNNQWITPDKPLLEGTQRAKLLEQKKIIAREIFFEDLAQYEEIRLINAMNGL” here?
A: Its value is “soluble”.

Q: Which “soluble on expression in E. coli” value does the source give for “MKFDFPQVDLPCEILAWNDVTEDILNIYKQSCRLKAGIFAICTEGKMTATINLIDYEIKPNDLITLLPGTIIQFRERTEKVRLCFAGFSSECVERINLIKSMVSSFSKITECPIVELQEDIASYLIDYFSLLARVTCDEKLSLPSEMTEVSLRSILTAVGLIYQRYSSKNHNTNRKEEICRELVGLVTEHYTEERRAQFYADKLGISLQHLSTTVKQVTGRNVLDVIAYVVIIDAKAKLKSSNMTIQEIAYSLNFPSASFFGKYFRRYVGMSPLEFRNS” here?
A: Its value is “not soluble”.

Q: With “MDKLESNKKAPLYQQLYDAILNKVRSGEYQVGEKIPSEEQLMTIYGVSRVTVRNAIKQLVDENILIKRHGKGTFVSMPSYVESMTAGGSFTESGLKMNRKPTTKIISICLKKATGHVAEALGVEKATEVIVIERLRSLDNMPAIFEIDYFRKEDQFMLDLELTDTSLLDILRQYRGVIASYFDNIIEIALADEKLAEALAISEEEALVKINQTVVDNDNQILYFNEQYILSESYKVAIRSYNK” as the sequence, how does the “soluble on expression in E. coli” value read?
A: The value was “not soluble”.

Q: With “QTGGSFYEPFNNYNTGLWQKADGYSNGNMFNCTWRANNVSMTSLGEMRLSLTSPSYNKFDCGENRSVQTYGYGLYEVNMKPAKNVGIVSSFFTYTGPTDGTPWDEIDIEFLGKDTTKVQFNYYTNGVGNHEKIVNLGFDAANSYHTYAFDWQPNSIKWYVDGQLKHTATTQIPQTPGKIMMNLWNGAGVDEWLGSYNGVTPLYAHYNWVRYTKR” as the sequence, how does the “soluble on expression in E. coli” value read?
A: Its value is “soluble”.

Q: With “ADTMTFTAKNGNVTFDHKKHQTIVPDCAVCHGKTPGKIEGFGKEMAHGKSCKGCHEEMKKGPTKCGECHKK” as the sequence, how does the “soluble on expression in E. coli” value read?
A: Its value is “soluble”.

Q: For “MSLGQGIPANPADGAGEWGDYRDCDSPWKAVEDAVRAAARQHPDAAYVYYTGDIIDHGVWETTVAGNIVSMTRTYQLFRDVFGSKPVYNVLGNHENNPTNVFAPSYITQSEFSAKWLYDFSADQWSTWLPTASQQTIRQGGFYTVLVRPGFRIIGMNNNDAYTFNWWILYDPAYLQAQLQWVHDTLLQAEAAGEKVHILAHIPIGAGTSYRTWARQYRRILDRFWDVITAHFHGHTHADEFNVFYSLANPQHAISAGFNGGGTVPFSNYNPNYVVYYVNPQTYDVTDFESWYFSLTEANQNPNREGHHHHHH”, which “soluble on expression in E. coli” value is on record?
A: Its value is “not soluble”.

Q: Which “soluble on expression in E. coli” value does the source give for “MGSSHHHHHHSSGLVPRGSHMASKSFQLLEPYNIKANLRPYQIKGFSWMRFMNKLGFGICLADDMGLGKTLQTIAVFSDAKKENELTPSLVICPLSVLKNWEEELSKFAPHLRFAVFHEDRSKIKLEDYDIILTTYAVLLRDTRLKEVEWKYIVIDEAQNIKNPQTKIFKAVKELKSKYRIALTGTPIENKVDDLWSIMTFLNPGLLGSYSEFKSKFATPIKKGDNMAKEELKAIISPFILRRTKYDKAIINDLPDKIETNVYCNLTPEQAAMYKAEVENLFNNIDSVTGIKRKGMILSTLLKLKQIVDHPALLKGGEQSVRRSGKMIRTMEIIEEALDEGDKIAIFTQFVDMGKIIRNIIEKELNTEVPFLYGELSKKERDDIISKFQNNPSVKFIVLSVKAGGFGINLTSANRVIHFDRWWNPAVEDQATDRVYRIGQTRNVIVHKLISVGTLEEKIDQLLAFKRSLFKDIISSGDSWITELSTEELRKVIELSVGGY” here?
A: Its value is “soluble”.

Q: With “MSLRQIRTVIQYQTVRYDILPLSPVSRNRLAQVKRKILVLDLDETLIHSHHDGVLRPTVRPGTPPDFILKVVIDKHPVRFFVHKRPHVDFFLEVVSQWYELVVFTASMEIYGSAVADKLDNSRSILKRRYYRQHCTLELGSYIKDLSVVHSDLSSIVILDNSPGAYRSHPDNAIPIKSWFSDPSDTALLNLLPMLDALRFTADVRSVLSRNLHQHRLWEGHHHHHH” as the sequence, how does the “soluble on expression in E. coli” value read?
A: The value was “not soluble”.

Q: For “MDDTLFQLKFTAKQLEKLAKKAEKDSKAEQAKVKKALQQKNVECARVYAENAIRKKNEGVNWLRMASRVDAVASKVQTAVTMKGVTKNMAQVTKALDKALSAMDLQKVSAVMDRFEQQVQNLDVHTSVMEDSVSSATTLTTPQEQVDSLIVQIAEENGLEVLDQLSQLPEGASAVGESSVRSQEDQLSRRLAALRN”, which “soluble on expression in E. coli” value is on record?
A: The value was “not soluble”.

Q: For “MGSDKIHHHHHHMSNDKEIIKRAVERHDIDSSIFQGRYVNFTQGKYTDEFIYGRYQMFEEIDRILSSLPKGAKVLDLGCGTGHFSTYIKTLCYEVTGLDPSTKMLDYARQNFPEITFVEGYSNALPFEDNTFDLIISIEVLRYLDTKIVLESYEEIYRTLKPNGKMFITHVNTLATEGYYIFYHLKKLAHSFKGKEYHSAYFTSANKEERTLKKIGFKNISCIGRMFATVRTGYKFGKTIGKTYAKLLEKFNPKQRFEKSHFKNFTGHLIVIAEK”, which “soluble on expression in E. coli” value is on record?
A: Its value is “not soluble”.

Q: Which “soluble on expression in E. coli” value does the source give for “MPRIVFDCLIDQPAARHLIERIDALTALLVRDNVVYSAHVDHQPQSPQPDSVREELTTTYLRDRGAETADELSDSVVALDELSLQRFTIVVDGLNGSLNETAMTYSRLLTPAARLSNDALDLTDEQRYEVPAAYPWTVFVSA” here?
A: Its value is “not soluble”.

Q: For “MSKTHLTEQKFSDFALHPKVVEALEKKGFHNCTPIQALALPLTLAGRDVAGQAQTGTGKTMAFLTSTFHYLLSHPAIADRKVNQPRALIMAPTRELAVQIHADAEPLAEATGLKLGLAYGGDGYDKQLKVLESGVDILIGTTGRLIDYAKQNHINLGAIQVVVLDEADRMYDLGFIKDIRWLFRRMPPANQRLNMLFSATLSYRVRELAFEQMNNAEYIEVEPEQKTGHRIKEELFYPSNEEKMRLLQTLIEEEWPDRAIIFANTKHRCEEIWGHLAADGHRVGLLTGDVAQKKRLRILDEFTRGDLDILVATDVAARGLHIPAVTHVFNYDLPDDCEDYVHRIGRTGRAGASGHSISLACEEYALNLPAIETYIGHSIPVSKYNPDALMTDLPKPLRLTRPRTGNGPRRTGAPRNRRRSG”, which “soluble on expression in E. coli” value is on record?
A: The value was “soluble”.

Reference: the DeepSol protein solubility set
